Source: patent US20140369964A1 (GLYTECH, published 2014)

T1: IFN-α/β receptor 2 (UniProt P48551 27-243, limits assumed)
T1 sequence (looked up): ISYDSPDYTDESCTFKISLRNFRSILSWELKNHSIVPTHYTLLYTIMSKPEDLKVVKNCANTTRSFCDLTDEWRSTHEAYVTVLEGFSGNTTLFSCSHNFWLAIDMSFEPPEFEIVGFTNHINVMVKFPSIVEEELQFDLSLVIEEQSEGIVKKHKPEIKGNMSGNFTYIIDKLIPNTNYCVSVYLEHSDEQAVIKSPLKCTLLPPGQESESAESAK


Biological target: T1, IFN-α/β receptor 2
Assay: SPR (ProteOn XPR36), receptor amine-coupled to GLM chip, IFN-β as analyte at 0.31-25 nM
Experimental: The binding affinity of the non-heated or heat-treated chemically synthesized IFN-β against IFN-α/β receptor 2 was measured with ProteOn XPR36 (Bio-rad) employing SPR (Surface Plasmon Resonance technology).
Specifically, 10 μg/mL of IFN-α/β receptor 2 (10 mM acetic acid buffer, pH 4.5) was fixed to a GLM chip (Bio-rad) according to instructions by employing an amine coupling kit (Bio-rad) and flowing 0.005% Tween 20/PBS at a flow rate of 30 μL/min. The non-heated disialo sugar chain attached polypeptide (10) prepared in Example 3, or the heat-treated disialo sugar chain attached polypeptide obtained by subjecting the disialo sugar chain attached polypeptide heat-treated in the above 9-1. to the de-Acm step, the benzyl group deprotection step, and the folding step described in the above 3-4.-3-6. were adjusted to 0.31-25 nM with 0.1% BSA and 2 mM EDTA/PBS, and added to the chip at a flow rate 50 of μL/min. The analysis with glycosylated polypeptide (10) was carried out at each of five concentrations of 0.31 nM, 0.93 nM, 2.8 nM, 8.3 nM, and 25 nM. The binding constant (ka), the dissociation constant (kd), and the binding dissociation constant (Kd) were analyzed with ProteOn Manager software. The results thereof are shown in FIG. 38, FIG. 39, and Table 1.

Kd [nM] | koff [s⁻¹] | kon [M⁻¹ s⁻¹] | Binder
0.49 | 0.0027 | 5.5e+06 | non-heated disialo sugar chain attached polypeptide (10) (ligand, disialo sugar chain on Asn at position 80; folded, with a mass loss of 2 Da after folding (disulfide bond, Cys 31-Cys 141 in interferon β), also called glycosylated polypeptide (10); disialo IFN-β) MSYNLLGFLQRSSNFQCQKLLWQLNGRLEYCLKDRMNFDIPEEIKQLQQFQKEDAALTIYEMLQNIFAIFRQDSSSTGWNETIVENLLANVYHQINHLKTVLEEKLEKEDFTRGKLMSSLHLKRYYGRILHYLKAKEYSHCAWTIVRVEILRNFYFINRLTGYLRN
0.53 | 0.0023 | 4.3e+06 | heat-treated disialo sugar chain attached polypeptide (ligand, disialo sugar chain on Asn at position 80; folded as in step 3-6, also called heat-treated chemically synthesized IFN-β) MSYNLLGFLQRSSNFQCQKLLWQLNGRLEYCLKDRMNFDIPEEIKQLQQFQKEDAALTIYEMLQNIFAIFRQDSSSTGWNETIVENLLANVYHQINHLKTVLEEKLEKEDFTRGKLMSSLHLKRYYGRILHYLKAKEYSHCAWTIVRVEILRNFYFINRLTGYLRN
